The values that follow come from US20190389958A1 (published 2019).

One may read the EC50 as the concentration that produces a half-maximal response.

In experiment [1] the target is T1, human CXCR4 (human, UniProt P61073 1-352).
T1 chain: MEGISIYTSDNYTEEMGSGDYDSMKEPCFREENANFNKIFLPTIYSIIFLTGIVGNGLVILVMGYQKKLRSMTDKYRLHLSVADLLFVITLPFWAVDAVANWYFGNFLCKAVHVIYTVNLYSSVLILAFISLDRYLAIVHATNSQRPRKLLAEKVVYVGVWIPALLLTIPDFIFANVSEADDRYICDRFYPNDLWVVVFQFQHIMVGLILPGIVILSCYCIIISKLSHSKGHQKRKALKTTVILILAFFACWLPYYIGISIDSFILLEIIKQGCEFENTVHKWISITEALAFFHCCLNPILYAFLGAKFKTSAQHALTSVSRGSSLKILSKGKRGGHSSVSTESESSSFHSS
The experiment is described as follows: flow cytometry. A general note: Flow cytometry measures light scatter and fluorescence of single cells or particles in a stream.

Experiment [2] concerns the target T1, human CXCR4. The experiment is described as follows: flow cytometry.
Experiment [3] has as its target T1, human CXCR4. The experiment is described as follows: flow cytometry; Batch1.
In experiment [4] the target is T1, human CXCR4. The experiment is described as follows: flow cytometry; Batch2.
Experiment [5] concerns the target T1, human CXCR4. The experiment is described as follows: flow cytometry; Batch1.
For experiment [6], the target named is T1, human CXCR4. The experiment is described as follows: flow cytometry; Batch2.
Experiment [7] concerns the target T1, human CXCR4. The experiment is described as follows: flow cytometry; Batch1.
For experiment [8], the target named is T1, human CXCR4. The experiment is described as follows: flow cytometry; Batch2.

B1: V62.1-R108H (antibody, V domains shown)
VH: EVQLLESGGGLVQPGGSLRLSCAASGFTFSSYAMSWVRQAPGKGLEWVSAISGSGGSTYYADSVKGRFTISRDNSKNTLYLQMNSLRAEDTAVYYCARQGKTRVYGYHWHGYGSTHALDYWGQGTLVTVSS
VL: EIVLTQSPGTLSLSPGERATLSCRASQSVSSSYLAWYQQKPGQAPRLLIYGASSRATGIPDRFSGSGSGTDFTLTISRLEPEDFAVYYCQQSDYSYPFTFGQGTKVEIKR
Take B1: the EC50 with human CXCR4 [1] was around 1.8 nM.

B2: V62.1 (antibody, V domains shown)
VH: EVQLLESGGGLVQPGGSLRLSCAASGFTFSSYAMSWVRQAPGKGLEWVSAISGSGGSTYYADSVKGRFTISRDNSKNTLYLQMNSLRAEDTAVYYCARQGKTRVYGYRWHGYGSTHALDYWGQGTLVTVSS
VL: B1 VL
For B2, the EC50 with human CXCR4 [2] is around 2.2 nM.

B3: V62.1-R108H-m80 (antibody, V domains shown)
VH: EVQLLESGGGLVQPGGSLRLSCAASGFTISPYSITWVRQAPGKGLEWVSQINSYNGKTYYADSVKGRFTISRDNSKNTLYLQMNSLRAEDTAVYYCARQGKTRVYGYHWHGYGSTHALDYWGQGTLVTVSS
VL: B1 VL
For B3, the EC50 with human CXCR4 [3] and with human CXCR4 [4] was around 1.2 nM each time.

B4: V62.1-R108H-m43-m38 (antibody, V domains shown)
VH: EVQLLESGGGLVQPGGSLRLSCAASGFTFSSYAMSWVRQAPGKGLEWVSAISGSGGGSTRYADSVKGRFTISRDNSKNTLYLQMNSLRAEDTAVYYCARQGKTRVYGYHWHGYGSTHALDYWGQGTLVTVSS
VL: EIVLTQSPGTLSLSPGERATLSCRASQSVSSSYLAWYQQKPGQAPRLLIYGASSRATGIPDRFSGSGSGTDFTLTISRLEPEDFAVYYCQQWSSDSVTFGQGTKVEIKR
B4: the EC50 was around 0.6 nM with human CXCR4 [5] and around 1.1 nM with human CXCR4 [6].

B5: V62.1-R108H-m47-m38 (antibody, V domains shown)
VH: EVQLLESGGGLVQPGGSLRLSCAASGFTFSSYAMSWVRQAPGKGLEWVSAISGSGGTRYADSVKGRFTISRDNSKNTLYLQMNSLRAEDTAVYYCARQGKTRVYGYHWHGYGSTHALDYWGQGTLVTVSS
VL: B4 VL
As to B5, the values for the 50% effective concentration (EC50) with human CXCR4 [7] and in the experiment with human CXCR4 [8] were around 0.7 nM and around 0.8 nM, respectively.
